Paper PMC3947954

How the values were obtained:
[1] = target: HIP14-GFP (Huntingtin Interacting Protein 14, GFP tagged) (human (from the printed RefSeq entries)) (UniProt Q8IUH5); experiment: co-IP; COS-7 cells transiently co-transfected, harvested after 24 h; lysed in 1% SDS TEEN, diluted in four volumes 1% TritonX-100 TEEN; GFP immunoprecipitated overnight (goat anti-GFP, Dynabeads Protein G); blots probed for HTT and GFP; HTT band as percent of the GFP band, normalized to 15Q HTT 1–548
[2] = target: HIP14L-GFP (Huntingtin Interacting Protein 14-like, GFP tagged) (human (from the printed RefSeq entries)) (UniProt Q8IUH4); experiment: as above
Chain of UniProt Q8IUH4 (Q8IUH4 whole entry): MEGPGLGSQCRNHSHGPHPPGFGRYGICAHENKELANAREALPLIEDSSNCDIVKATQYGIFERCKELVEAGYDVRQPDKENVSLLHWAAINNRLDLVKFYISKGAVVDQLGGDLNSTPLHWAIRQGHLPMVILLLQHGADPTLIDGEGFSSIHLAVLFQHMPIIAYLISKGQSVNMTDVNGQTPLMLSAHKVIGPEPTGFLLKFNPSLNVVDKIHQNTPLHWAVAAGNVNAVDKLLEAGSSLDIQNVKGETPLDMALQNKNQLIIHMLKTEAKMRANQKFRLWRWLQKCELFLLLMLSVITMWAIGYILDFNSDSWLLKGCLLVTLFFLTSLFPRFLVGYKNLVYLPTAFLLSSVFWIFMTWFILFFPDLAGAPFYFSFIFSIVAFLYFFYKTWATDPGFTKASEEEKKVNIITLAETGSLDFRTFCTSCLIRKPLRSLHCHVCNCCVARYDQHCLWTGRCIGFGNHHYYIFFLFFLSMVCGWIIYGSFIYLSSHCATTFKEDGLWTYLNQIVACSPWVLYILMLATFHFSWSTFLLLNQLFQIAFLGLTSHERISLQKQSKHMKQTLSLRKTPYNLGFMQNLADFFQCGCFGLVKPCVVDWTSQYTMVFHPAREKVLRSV

Chain of UniProt Q8IUH5 (Q8IUH5 whole entry): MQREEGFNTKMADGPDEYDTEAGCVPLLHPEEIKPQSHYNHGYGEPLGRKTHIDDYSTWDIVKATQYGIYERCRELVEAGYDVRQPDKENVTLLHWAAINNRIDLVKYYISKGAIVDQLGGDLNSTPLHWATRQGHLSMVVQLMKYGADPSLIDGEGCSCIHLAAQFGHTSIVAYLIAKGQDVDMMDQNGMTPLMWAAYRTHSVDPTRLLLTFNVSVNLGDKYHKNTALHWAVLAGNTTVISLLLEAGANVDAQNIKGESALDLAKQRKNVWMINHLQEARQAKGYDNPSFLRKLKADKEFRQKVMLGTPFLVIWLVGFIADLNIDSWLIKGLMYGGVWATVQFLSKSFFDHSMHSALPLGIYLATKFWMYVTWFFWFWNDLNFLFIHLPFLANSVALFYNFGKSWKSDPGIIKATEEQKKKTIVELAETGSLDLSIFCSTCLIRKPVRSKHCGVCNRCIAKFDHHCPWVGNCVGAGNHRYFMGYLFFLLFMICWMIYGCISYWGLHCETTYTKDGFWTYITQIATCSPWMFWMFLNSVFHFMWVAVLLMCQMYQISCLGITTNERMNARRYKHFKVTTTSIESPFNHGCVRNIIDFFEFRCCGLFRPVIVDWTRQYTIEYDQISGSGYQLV

128Q HTT 1–548 (domain or fragment)
percent less co-immunoprecipitated than 15Q HTT 1–548 [1]: 57%
percent decrease of interaction against 15Q HTT 1–548 [2]: 54%
